Measured values as given in patent publication US9869668B2, “PDGF as a biomarker for predicting resistance or effect of c-Met targeting drugs” (SAMSUNG ELECTRONICS CO., LTD., priority 2014, dated 2018).

Key:
Type in all cases: cell-based
[1] = test system: EBC1-SR#6 cell line (compared with EBC1 parental cell line); assay: EZ-Cytox cell viability assay, 72 hours after treatment; conditions: EBC1-SR#6 vs EBC1 parental cell line, sole treatment, FIG. 2/FIG. 3
Procedure: To examine whether the quantitative increase of PDGF protein contributes to obtaining resistance in anti-c-Met antibody resistance acquired cell line, EBC1 and EBC1-SR#6 cell lines were treated with PDGFR (PDGF Receptor) TKI (tyrosine kinase inhibitor), then the changes of cell growth inhibition were measured using EZ-Cytox Cell viability assay kit (DaeiLab Service, Seoul, Korea).
For this, each of EBC1 cells and EBC1-SR#6 cells were seeded on 96-well plate at the amount of 5000 (5×10^3) cells. […] Seventy two hours after the treatment, the number of the cells was measured by EZ-Cytox Cell viability assay kit.

[2] = test system: EBC1 parent cells; assay: Responsiveness of parent cells to SAIT301 before inducing resistance
Procedure: To examine the quantitative change of PDGF when a resistance to an anti-c-Met antibody is induced, SAIT301 resistance acquired EBC1-SR#6 cell lines were prepared by repeatedly treating EBC1 (JCRB 0820) cells with SAIT301. EBC1 parent cells were all responsive to SAIT301, before inducing SAIT301 resistance. The SAIT301 resistance acquired EBC1-SR#6 cell lines were prepared as follows: […]

[3] = test system: EBC1-SR#6 cell lines; assay: CellTiter Glo assay confirming acquired resistance to SAIT301; conditions: resistance-acquired clones; 0-2 ug/ml; 72 hours after the antibody treatment
Procedure: EBC1 (JCRB 0820) cell lines was treated with SAIT301 for at least 2 months, with increasing the concentration of treated antibody. The concentration of SAIT301 was increased from 1 ug/ml to 10 ug/ml until a resistance is induced. To confirm the acquisition of a resistance to SAIT301, the prepared clones were treated with SAIT301 at the concentration of 0 ug/ml, 0.016 ug/ml, 0.08 ug/ml, 0.4 ug/ml, or 2 ug/ml, and 72 hours after the antibody treatment, the number of the living cells was counted by CellTiter Glo assay (Promega, G7573).
The obtained SAIT301 resistance acquired cell lines were named EBC1-SR#6.

CCN(CC)CCCCNc1ncc2cc(-c3cc(OC)cc(OC)c3)c(NC(=O)NC(C)(C)C)nc2n1 [PD173074]
chemosensitivity of EBC1-SR#6 cell line compared with EBC1 [1]: not changed markedly

B1: SAIT301: anti-c-Met antibody: huAbF46-H4-A1 heavy chain variable region, human IgG2 hinge and constant region, kappa light chain (antibody)
heavy: EVQLVESGGGLVQPGGSLRLSCAASGFTFTDYYMSWVRQAPGKGLEWLGFIRNKANGYTTEYSASVKGRFTISRDNSKNTLYLQMNSLRAEDTAVYYCARDNWFAYWGQGTLVTVSSASTKGPSVFPLAPCSRSTSESTAALGCLVKDYFPEPVTVSWNSGALTSGVHTFPAVLQSSGLYSLSSVVTVPSSNFGTQTYTCNVDHKPSNTKVDKTVERKCCVECPPCPAPPVAGPSVFLFPPKPKDTLMISRTPEVTCVVVDVSHEDPEVQFNWYVDGVEVHNAKTKPREEQFNSTFRVVSVLTVVHQDWLNGKEYKCKVSNKGLPAPIEKTISKTKGQPREPQVYTLPPSREEMTKNQVSLTCLVKGFYPSDIAVEWESNGQPENNYKTTPPMLDSDGSFFLYSKLTVDKSRWQQGNVFSCSVMHEALHNHYTQKSLSLSPGK
light: DIQMTQSPSSLSASVGDRVTITCKSSQSLLASGNQNNYLAWYQQKPGKAPKMLIIWASTRVSGVPSRFSGSGSGTDFTLTISSLQPEDFATYYCQQSYSRPYTFGQGTKVEIKRTVAAPSVFIFPPSDEQLKSGTASVVCLLNNFYPREAKVQWKVDNALQSGNSQESVTEQDSKDSTYSLSSTLTLSKADYEKHKVYACEVTHQGLSSPVTKSFNRGEC
responsiveness of cells to antibody [2]: responsive | effect of antibody on number of living cells [3]: no effect
